In PMC9482650, “Quantitative fragmentomics allow affinity mapping of interactomes” (Nature Communications, 2022):

T1: NHERF3_1, Q5T2W1
T1 sequence (Q5T2W1 4-100, limits assumed, looked up): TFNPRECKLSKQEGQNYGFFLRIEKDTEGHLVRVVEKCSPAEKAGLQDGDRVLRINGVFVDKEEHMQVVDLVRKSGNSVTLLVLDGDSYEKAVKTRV

T2: NHERF3_3, Q5T2W1
T2 sequence (Q5T2W1 238-333, limits assumed, looked up): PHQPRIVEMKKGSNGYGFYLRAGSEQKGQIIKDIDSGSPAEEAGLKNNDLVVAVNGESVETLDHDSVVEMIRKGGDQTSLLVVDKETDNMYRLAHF

T3: SNTG1, Q9NSN8
T3 sequence (Q9NSN8 52-150, limits assumed, looked up): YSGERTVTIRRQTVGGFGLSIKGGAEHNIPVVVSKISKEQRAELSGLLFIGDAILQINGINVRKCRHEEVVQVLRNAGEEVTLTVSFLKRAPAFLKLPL

T4: HTRA3, P83110
T4 sequence (P83110 354-453, limits assumed, looked up): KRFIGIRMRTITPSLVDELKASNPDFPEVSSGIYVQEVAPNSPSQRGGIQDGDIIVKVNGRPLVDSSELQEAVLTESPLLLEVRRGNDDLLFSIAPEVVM

T5: LNX2_2, Q8N448
T5 sequence (Q8N448 334-432, limits assumed, looked up): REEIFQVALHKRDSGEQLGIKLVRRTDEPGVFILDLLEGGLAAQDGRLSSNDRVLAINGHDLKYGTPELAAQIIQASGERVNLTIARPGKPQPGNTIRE

T6: LIN7B, Q9HAP6
T6 sequence (Q9HAP6 88-185, limits assumed, looked up): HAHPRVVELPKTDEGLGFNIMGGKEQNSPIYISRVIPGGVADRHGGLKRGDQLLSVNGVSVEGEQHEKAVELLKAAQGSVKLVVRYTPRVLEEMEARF

T7: LRRC7, Q96NW7
T7 sequence (Q96NW7 1440-1537, limits assumed, looked up): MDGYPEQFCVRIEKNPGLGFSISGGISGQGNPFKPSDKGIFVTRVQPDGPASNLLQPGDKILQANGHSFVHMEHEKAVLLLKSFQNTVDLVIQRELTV

T8: CARD11, Q9BXL7
T8 sequence (Q9BXL7 662-765, limits assumed, looked up): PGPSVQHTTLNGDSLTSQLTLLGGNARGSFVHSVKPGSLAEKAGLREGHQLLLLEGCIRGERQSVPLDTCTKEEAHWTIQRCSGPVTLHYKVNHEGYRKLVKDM

T9: PCLO, Q9Y6V0
T9 sequence (Q9Y6V0 4491-4600, limits assumed, looked up): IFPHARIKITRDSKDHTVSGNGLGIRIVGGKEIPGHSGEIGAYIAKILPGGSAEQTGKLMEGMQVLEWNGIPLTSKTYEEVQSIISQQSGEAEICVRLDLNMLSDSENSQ

B1: MYPN, Q86TC9 (peptide)
chain: SRSVVESDEL
B2: NECTIN1, Q15223 (peptide)
chain: SFISKKEWYV

molecular target: T1, NHERF3_1, Q5T2W1; test: holdup assay; parameters: key: below the threshold = too weak to quantify, mostly under pKd 3.1 to 4; details: plain residues with an end cap or a label only (N-terminal biotin on a linker: ado-ado)

| pKd | Binder |
| --- | --- |
| 5.44 | B1 |
| 4.28 | B2 |

molecular target: MAGI2_4, Q86UL8; test: holdup assay; parameters: key: below the threshold = too weak to quantify, mostly under pKd 3.1 to 4; details: plain residues with an end cap or a label only (N-terminal biotin on a linker: ado-ado)
Sequence (Q86UL8 772-865): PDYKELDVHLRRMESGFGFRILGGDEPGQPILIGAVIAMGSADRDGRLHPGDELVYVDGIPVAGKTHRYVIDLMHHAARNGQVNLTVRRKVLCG

| pKd | Binder |
| --- | --- |
| below the threshold | B1 |
| 3.8 | B2 |

molecular target: Inadl_5, Q8NI35; test: holdup assay; parameters: key: below the threshold = too weak to quantify, mostly under pKd 3.1 to 4; details: plain residues with an end cap or a label only (N-terminal biotin on a linker: ado-ado)
Sequence (Q8NI35 673-780): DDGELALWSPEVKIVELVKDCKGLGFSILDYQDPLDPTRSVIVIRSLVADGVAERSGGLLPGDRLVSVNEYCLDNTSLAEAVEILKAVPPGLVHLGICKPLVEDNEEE

| pKd | Binder |
| --- | --- |
| below the threshold | B1 |
| 4.82 | B2 |

molecular target: IL16_3, Q14005; test: holdup assay; parameters: key: below the threshold = too weak to quantify, mostly under pKd 3.1 to 4; details: plain residues with an end cap or a label only (N-terminal biotin on a linker: ado-ado)
Sequence (Q14005 1107-1207): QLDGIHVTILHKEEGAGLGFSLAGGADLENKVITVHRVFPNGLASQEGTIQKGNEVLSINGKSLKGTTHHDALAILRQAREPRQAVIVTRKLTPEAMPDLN

| pKd | Binder |
| --- | --- |
| below the threshold | B1 |
| below the threshold | B2 |

molecular target: DLG4_3, P78352; test: holdup assay; parameters: key: below the threshold = too weak to quantify, mostly under pKd 3.1 to 4; details: plain residues with an end cap or a label only (N-terminal biotin on a linker: ado-ado)
Sequence (P78352 306-403): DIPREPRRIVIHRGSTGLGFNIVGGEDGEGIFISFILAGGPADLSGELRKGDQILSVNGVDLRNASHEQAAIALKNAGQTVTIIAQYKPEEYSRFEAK

| pKd | Binder |
| --- | --- |
| below the threshold | B1 |
| below the threshold | B2 |

molecular target: GRIP2_5, Q9C0E4; test: holdup assay; parameters: key: below the threshold = too weak to quantify, mostly under pKd 3.1 to 4; details: plain residues with an end cap or a label only (N-terminal biotin on a linker: ado-ado)
Sequence (Q9C0E4 544-642): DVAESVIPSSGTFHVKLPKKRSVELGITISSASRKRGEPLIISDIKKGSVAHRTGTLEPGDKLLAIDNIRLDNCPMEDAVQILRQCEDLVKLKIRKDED

| pKd | Binder |
| --- | --- |
| below the threshold | B1 |
| below the threshold | B2 |

molecular target: GOPC, Q9HD26; test: holdup assay; parameters: key: below the threshold = too weak to quantify, mostly under pKd 3.1 to 4; details: plain residues with an end cap or a label only (N-terminal biotin on a linker: ado-ado)

| pKd | Binder |
| --- | --- |
| below the threshold | B1 |
| below the threshold | B2 |

molecular target: SNX27, Q96L92; test: holdup assay; parameters: key: below the threshold = too weak to quantify, mostly under pKd 3.1 to 4; details: plain residues with an end cap or a label only (N-terminal biotin on a linker: ado-ado)

| pKd | Binder |
| --- | --- |
| 4.17 | B1 |
| below the threshold | B2 |

molecular target: T2, NHERF3_3, Q5T2W1; test: holdup assay; parameters: key: below the threshold = too weak to quantify, mostly under pKd 3.1 to 4; details: plain residues with an end cap or a label only (N-terminal biotin on a linker: ado-ado)

| pKd | Binder |
| --- | --- |
| below the threshold | B1 |
| below the threshold | B2 |

molecular target: T3, SNTG1, Q9NSN8; test: holdup assay; parameters: key: below the threshold = too weak to quantify, mostly under pKd 3.1 to 4; details: plain residues with an end cap or a label only (N-terminal biotin on a linker: ado-ado)

| pKd | Binder |
| --- | --- |
| below the threshold | B1 |
| 3.51 | B2 |

molecular target: TJP2_1, Q9UDY2; test: holdup assay; parameters: key: below the threshold = too weak to quantify, mostly under pKd 3.1 to 4; details: plain residues with an end cap or a label only (N-terminal biotin on a linker: ado-ado)
Sequence (Q9UDY2 24-128): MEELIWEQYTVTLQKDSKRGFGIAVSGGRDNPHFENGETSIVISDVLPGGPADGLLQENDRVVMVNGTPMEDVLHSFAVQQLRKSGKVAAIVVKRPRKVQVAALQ

| pKd | Binder |
| --- | --- |
| below the threshold | B1 |
| 4 | B2 |

molecular target: LAP2, Q96RT1; test: holdup assay; parameters: key: below the threshold = too weak to quantify, mostly under pKd 3.1 to 4; details: plain residues with an end cap or a label only (N-terminal biotin on a linker: ado-ado)
Sequence (Q96RT1 other isoform, or with tags, fused parts or gaps): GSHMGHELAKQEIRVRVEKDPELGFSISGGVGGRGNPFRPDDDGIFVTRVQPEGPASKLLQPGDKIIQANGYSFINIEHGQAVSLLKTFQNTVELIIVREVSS

| pKd | Binder |
| --- | --- |
| below the threshold | B1 |
| below the threshold | B2 |

molecular target: DLG5_1, Q8TDM6; test: holdup assay; parameters: key: below the threshold = too weak to quantify, mostly under pKd 3.1 to 4; details: plain residues with an end cap or a label only (N-terminal biotin on a linker: ado-ado)
Sequence (Q8TDM6 617-713): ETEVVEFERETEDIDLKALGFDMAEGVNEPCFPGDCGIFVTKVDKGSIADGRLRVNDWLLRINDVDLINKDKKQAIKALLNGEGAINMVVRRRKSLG

| pKd | Binder |
| --- | --- |
| below the threshold | B1 |
| below the threshold | B2 |

molecular target: NHERF4_1, Q86UT5-2; test: holdup assay; parameters: key: below the threshold = too weak to quantify, mostly under pKd 3.1 to 4; details: plain residues with an end cap or a label only (N-terminal biotin on a linker: ado-ado)
Sequence (Q86UT5 other isoform, or with tags, fused parts or gaps): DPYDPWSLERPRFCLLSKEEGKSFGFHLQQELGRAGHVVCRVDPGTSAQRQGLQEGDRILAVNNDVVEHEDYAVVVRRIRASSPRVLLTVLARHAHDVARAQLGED

| pKd | Binder |
| --- | --- |
| 4.29 | B1 |
| below the threshold | B2 |

molecular target: T4, HTRA3, P83110; test: holdup assay; parameters: key: below the threshold = too weak to quantify, mostly under pKd 3.1 to 4; details: plain residues with an end cap or a label only (N-terminal biotin on a linker: ado-ado)

| pKd | Binder |
| --- | --- |
| below the threshold | B1 |
| 4.83 | B2 |

molecular target: T5, LNX2_2, Q8N448; test: holdup assay; parameters: key: below the threshold = too weak to quantify, mostly under pKd 3.1 to 4; details: plain residues with an end cap or a label only (N-terminal biotin on a linker: ado-ado)

| pKd | Binder |
| --- | --- |
| below the threshold | B1 |
| 5.05 | B2 |

molecular target: GRIP2_7, Q9C0E4; test: holdup assay; parameters: key: below the threshold = too weak to quantify, mostly under pKd 3.1 to 4; details: plain residues with an end cap or a label only (N-terminal biotin on a linker: ado-ado)
Sequence (Q9C0E4 934-1023): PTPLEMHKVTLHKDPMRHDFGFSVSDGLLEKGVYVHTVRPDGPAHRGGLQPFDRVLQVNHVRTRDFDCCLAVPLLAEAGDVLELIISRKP

| pKd | Binder |
| --- | --- |
| below the threshold | B1 |
| 5.62 | B2 |

molecular target: LDB3, O75112; test: holdup assay; parameters: key: below the threshold = too weak to quantify, mostly under pKd 3.1 to 4; details: plain residues with an end cap or a label only (N-terminal biotin on a linker: ado-ado)
Sequence (O75112 1-94): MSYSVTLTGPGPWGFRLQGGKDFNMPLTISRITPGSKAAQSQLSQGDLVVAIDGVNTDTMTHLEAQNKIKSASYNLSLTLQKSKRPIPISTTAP

| pKd | Binder |
| --- | --- |
| 5.06 | B1 |
| below the threshold | B2 |

molecular target: T6, LIN7B, Q9HAP6; test: holdup assay; parameters: key: below the threshold = too weak to quantify, mostly under pKd 3.1 to 4; details: plain residues with an end cap or a label only (N-terminal biotin on a linker: ado-ado)

| pKd | Binder |
| --- | --- |
| below the threshold | B1 |
| 3.63 | B2 |

molecular target: PICK1, Q9NRD5; test: holdup assay; parameters: key: below the threshold = too weak to quantify, mostly under pKd 3.1 to 4; details: plain residues with an end cap or a label only (N-terminal biotin on a linker: ado-ado)
Sequence (Q9NRD5 17-115): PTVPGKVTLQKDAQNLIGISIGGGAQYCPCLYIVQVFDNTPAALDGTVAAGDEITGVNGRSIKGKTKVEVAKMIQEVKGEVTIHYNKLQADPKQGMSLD

| pKd | Binder |
| --- | --- |
| below the threshold | B1 |
| 4.24 | B2 |

molecular target: SCRIB_3, Q14160; test: holdup assay; parameters: key: below the threshold = too weak to quantify, mostly under pKd 3.1 to 4; details: plain residues with an end cap or a label only (N-terminal biotin on a linker: ado-ado)
Sequence (Q14160 999-1103): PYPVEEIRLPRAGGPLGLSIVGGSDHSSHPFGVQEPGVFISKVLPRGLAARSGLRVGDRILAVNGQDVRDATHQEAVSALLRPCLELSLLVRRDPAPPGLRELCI

| pKd | Binder |
| --- | --- |
| 3.51 | B1 |
| below the threshold | B2 |

molecular target: T7, LRRC7, Q96NW7; test: holdup assay; parameters: key: below the threshold = too weak to quantify, mostly under pKd 3.1 to 4; details: plain residues with an end cap or a label only (N-terminal biotin on a linker: ado-ado)

| pKd | Binder |
| --- | --- |
| below the threshold | B1 |
| below the threshold | B2 |

molecular target: SCRIB_2, Q14160; test: holdup assay; parameters: key: below the threshold = too weak to quantify, mostly under pKd 3.1 to 4; details: plain residues with an end cap or a label only (N-terminal biotin on a linker: ado-ado)
Sequence (Q14160 857-960): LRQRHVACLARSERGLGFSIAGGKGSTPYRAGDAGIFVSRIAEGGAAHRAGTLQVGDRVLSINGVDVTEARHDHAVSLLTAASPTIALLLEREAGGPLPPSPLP

| pKd | Binder |
| --- | --- |
| below the threshold | B1 |
| below the threshold | B2 |

molecular target: GRID2IP_2, A4D2P6; test: holdup assay; parameters: key: below the threshold = too weak to quantify, mostly under pKd 3.1 to 4; details: plain residues with an end cap or a label only (N-terminal biotin on a linker: ado-ado)
Sequence (A4D2P6 272-370): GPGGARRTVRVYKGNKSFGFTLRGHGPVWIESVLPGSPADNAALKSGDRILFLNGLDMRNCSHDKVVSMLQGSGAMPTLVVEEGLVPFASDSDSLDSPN

| pKd | Binder |
| --- | --- |
| below the threshold | B1 |
| below the threshold | B2 |

molecular target: NHERF4_2, Q86UT5; test: holdup assay; parameters: key: below the threshold = too weak to quantify, mostly under pKd 3.1 to 4; details: plain residues with an end cap or a label only (N-terminal biotin on a linker: ado-ado)
Sequence (Q86UT5 220-308): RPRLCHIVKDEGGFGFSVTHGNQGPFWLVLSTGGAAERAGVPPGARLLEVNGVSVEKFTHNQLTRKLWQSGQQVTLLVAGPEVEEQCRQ

| pKd | Binder |
| --- | --- |
| below the threshold | B1 |
| below the threshold | B2 |

molecular target: Inadl_10, Q8NI35; test: holdup assay; parameters: key: below the threshold = too weak to quantify, mostly under pKd 3.1 to 4; details: plain residues with an end cap or a label only (N-terminal biotin on a linker: ado-ado)
Sequence (Q8NI35 1673-1763): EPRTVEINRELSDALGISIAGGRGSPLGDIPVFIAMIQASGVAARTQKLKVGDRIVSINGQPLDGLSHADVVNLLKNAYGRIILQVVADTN

| pKd | Binder |
| --- | --- |
| below the threshold | B1 |
| below the threshold | B2 |

molecular target: T8, CARD11, Q9BXL7; test: holdup assay; parameters: key: below the threshold = too weak to quantify, mostly under pKd 3.1 to 4; details: plain residues with an end cap or a label only (N-terminal biotin on a linker: ado-ado)

| pKd | Binder |
| --- | --- |
| below the threshold | B1 |
| below the threshold | B2 |

molecular target: T9, PCLO, Q9Y6V0; test: holdup assay; parameters: key: below the threshold = too weak to quantify, mostly under pKd 3.1 to 4; details: plain residues with an end cap or a label only (N-terminal biotin on a linker: ado-ado)

| pKd | Binder |
| --- | --- |
| below the threshold | B1 |
| below the threshold | B2 |
